Experimental findings from patent US20130331333A1 (HADASIT MEDICAL RESEARCH SERVICES AND DEVELOPMENT, published 2013) are described below.

Where a chain is given by its changes, count along the chain named.

First the molecules themselves.
B1: wild-type human protease-activated receptor 1 (wt hPar1) (receptor, UniProt P25116 42-425, looked up)
chain: SFLLRNPNDKYEPFWEDEEKNESGLTEYRLVSINKSSPLQKQLPAFISEDASGYLTSSWLTLFVPSVYTGVFVVSLPLNIMAIVVFILKMKVKKPAVVYMLHLATADVLFVSVLPFKISYYFSGSDWQFGSELCRFVTAAFYCNMYASILLMTVISIDRFLAVVYPMQSLSWRTLGRASFTCLAIWALAIAGVVPLLLKEQTIQVPGLNITTCHDVLNETLLEGYYAYYFSAFSAVFFFVPLIISTVCYVSIIRCLSSSAVANRSKKSRALFLSAAVFCIFIICFGPTNVLLIAHYSFLSHTSTTEAAYFAYLLCVCVSSISCCIDPLIYYYASSECQRYVYSILCCKESSDPSSYNSSGQLMASKMDTCSSNLNNSIYKKLLT
notes: whole, on cells; Tested as protein in cell lysates (pull-down, co-immunoprecipitation, antibody array)
B2: HA-tagged wt hPar1 (receptor, human, UniProt P25116 42-425, looked up)
chain: B1 chain
notes: whole, on cells; Tested in lysates of transfected cells; also called HA-wt hPar1; HA-wthPar1; not shown: HA tag added downstream of the ATG start codon
B3: GST-PH-Etk/Bmx (other, UniProt P51813 1-111, looked up)
chain: MDTKSILEELLLKRSQQKKKMSPNNYKERLFVLTKTNLSYYEYDKMKRGSRKGSIEIKKIRCVEKVNLEEQTPVERQYPFQIVYKDGLLYVYASNEESRSQWLKALQKEIR
notes: domain: PH domain; Made as in Chen et al. 2001; also called GST-Etk-PH; GST-Etk/Bmx; not shown: GST tag
B4: GST-PAR2 C-tail wt (other, human, UniProt P55085 348-397, looked up)
chain: SHDFRDHAKNALLCRSVRTVKQMQVSLTSKKHSRKSSSYSSSSTTVKTSY
notes: domain: PAR2 C-tail; not shown: GST tag
B5: GST-PH-Vav3 (other, UniProt Q9UKW4 400-502, looked up)
chain: RPQGDGEIRITTLDKHTKQERHIFLFDLAVIVCKRKGDNYEMKEIIDLQQYKIANNPTTDKENKKWSYGFYLIHTQGQNGLEFYCKTKDLKKKWLEQFEMALS
notes: domain: PH domain; also called PH-domain-Vav3; Vav3-PH-domain; not shown: GST tag

Experiment [1] concerns the target c-Yes (UniProt P07947 2-543). Description: antibody array with MDA-MB-435 lysates before and after PAR1 activation, biotinylated anti-PAR1 detection. The method, then: (§1) Antibody array: A custom-made antibody array (hypromatrix) containing thirty antibodies against various proteins was prepared (FIG. 1). The antibodies were immobilized on a membrane, each at a pre-determined position, while retaining their capabilities of recognizing and capturing antigens as well as antigen-associated proteins. MDA-MB-435 cells were activated for 10 min with thrombin (1 U/ml). Untreated or activated cells were lysed with Triton extraction solution: 15 mM Tris, pH 7.5, 120 mM NaCl, 25 mM KCl, 2 mM EGTA, 2 mM EDTA, 0.1 mM DTT, 0.5% Triton X-100, […] and 0.5 mM PMSF. Protein extract was incubated on pre-blocked membrane for 2 h at room temperature. The antibody array was washed with TBST and incubated with biotinylated PAR₁ antibody (ATAP) for 2 h at room temperature. The antibody array was washed again with TBST, and the membrane was incubated with HRP-conjugated streptavidin for 1 h. Protein-protein interactions were detected by ECL and exposure to X-ray film.
(§2) To detect the putative mediator(s) linking PAR1 to potential signaling proteins, custom-made antibody-array membranes were examined. Aggressive breast carcinoma MDA-MB-435 cells (with high hPar1 levels) were incubated with the antibody-array membranes before and after PAR₁ activation (15 minutes). […]

Experiment [2] addresses T1, Etk/Bmx (epithelial tyrosine kinase), wild type (UniProt P51813 1-675).
T1 construct: Plasmids after Tsai et al. 2000; also called wt-Etk
T1 sequence (looked up): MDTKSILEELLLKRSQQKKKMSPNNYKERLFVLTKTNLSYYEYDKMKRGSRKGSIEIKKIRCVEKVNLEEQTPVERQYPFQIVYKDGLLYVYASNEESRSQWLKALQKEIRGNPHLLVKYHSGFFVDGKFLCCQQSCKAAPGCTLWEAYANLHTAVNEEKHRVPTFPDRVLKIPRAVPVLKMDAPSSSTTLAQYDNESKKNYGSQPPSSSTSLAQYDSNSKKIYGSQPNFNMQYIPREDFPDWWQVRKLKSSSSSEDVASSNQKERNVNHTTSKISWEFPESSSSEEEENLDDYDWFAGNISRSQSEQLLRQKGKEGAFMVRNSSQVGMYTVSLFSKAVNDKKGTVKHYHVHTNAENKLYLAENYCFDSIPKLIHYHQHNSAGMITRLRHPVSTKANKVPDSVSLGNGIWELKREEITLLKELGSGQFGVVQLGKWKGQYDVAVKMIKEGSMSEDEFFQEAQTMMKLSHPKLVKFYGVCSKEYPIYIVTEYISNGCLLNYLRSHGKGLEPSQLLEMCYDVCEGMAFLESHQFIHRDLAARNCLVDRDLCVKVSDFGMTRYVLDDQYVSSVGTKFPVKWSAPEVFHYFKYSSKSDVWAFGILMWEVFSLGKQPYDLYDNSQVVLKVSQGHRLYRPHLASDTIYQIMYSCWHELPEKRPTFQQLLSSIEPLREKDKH
Described as above. The method, then:
as §1, §2

Experiment [3] concerns the target T2, T7-tagged Etk/Bmx (UniProt P51813 1-675).
T2 construct: not shown: T7 tag
T2 sequence (looked up): T1 sequence (looked up)
The experiment can be described thus: anti-HA immunoprecipitation, anti-T7 blot.

Experiment [4] deals with B1. The experiment can be described thus: cell lysates on GST-Etk-PH column, anti-PAR1 blot. The method, then:
The IP was performed using anti-PAR1 (ATAP, Santa Cruz, Calif.). FIGS. 7B and 7C are photographs of gels showing peptide competition for PAR1 binding to GST-PH-Etk/Bmx.
GST fusion protein columns. Fusion proteins were purified from transformed Escherichia coli bacteria that had been stimulated with isopropyl-β-D-thio-galactopyranoside (IPTG) at a concentration of […]. Bacteria were lysed according to published procedures, and then immobilized on glutathione Sepharose beads (Pharmacia). Briefly, MDA-MB-435 cell lysates were applied to GST-PAR1C-tail or GST control columns. After 2 h binding periods to the designated protein/s cell lysates to the columns, a washing step was performed. The washes (×3) were carried out using a “wash buffer” including: 100 mM NaCL, 20 mM EDTA, 10 mM Tris, pH 8.0 and 1% Triton ×100. This step was performed in order to wash out all non-specific proteins, leaving the GST-PAR₁-C-tail column firmly bound to targeted cell lysate proteins. Next, elution of bound proteins was performed via the addition of gel “sample buffer” and appropriate boiling. The samples were run electrophoretically on SDS-PAGE gels, followed by immunoblotting with the indicated antibodies and ECL detection. GST-PH-Etk/Bmx. The PH domain in Etk/Bmx was bound to GST column as previously described (Chen R, et al. (2001) Nat Cell Biol. 3: 439-444). […]

Experiment [5] deals with T1, Etk/Bmx (epithelial tyrosine kinase), …. The experiment can be described thus: Etk/Bmx expressing cell lysates on GST-PAR2 C-tails.
For experiment [6], the target named is B2. Description: lysates of cells transfected with HA-tag-hPar1 applied on GST-PH-Vav3. The method, then:
GST fusion protein columns. Fusion proteins were purified from transformed Escherichia coli bacteria that had been stimulated with isopropyl-β-D-thio-galactopyranoside (IPTG) at a concentration of […]. Bacteria were lysed according to published procedures, and then immobilized on glutathione Sepharose beads (Pharmacia). Briefly, MDA-MB-435 cell lysates were applied to GST-PAR1C-tail or GST control columns. After 2 h binding periods to the designated protein/s cell lysates to the columns, a washing step was performed. The washes (×3) were carried out using a “wash buffer” including: 100 mM NaCL, 20 mM EDTA, 10 mM Tris, pH 8.0 and 1% Triton ×100. This step was performed in order to wash out all non-specific proteins, leaving the GST-PAR₁-C-tail column firmly bound to targeted cell lysate proteins. Next, elution of bound proteins was performed via the addition of gel “sample buffer” and appropriate boiling. The samples were run electrophoretically on SDS-PAGE gels, followed by immunoblotting with the indicated antibodies and ECL detection. GST-PH-Etk/Bmx. The PH domain in Etk/Bmx was bound to GST column as previously described (Chen R, et al. (2001) Nat Cell Biol. 3: 439-444).
Next, a panel of cell-lines was transfected with HA-tag-hPar1. Cell lysates were prepared and applied onto GST-PH-Akt or GST-PH-Vav₃. […]

In experiment [7] the target is T3, wild-type protease-activated receptor 2 (wt hPar2) (human, UniProt P55085 37-397).
T3 construct: whole, on cells; Species read from the name hPar2
T3 sequence (looked up): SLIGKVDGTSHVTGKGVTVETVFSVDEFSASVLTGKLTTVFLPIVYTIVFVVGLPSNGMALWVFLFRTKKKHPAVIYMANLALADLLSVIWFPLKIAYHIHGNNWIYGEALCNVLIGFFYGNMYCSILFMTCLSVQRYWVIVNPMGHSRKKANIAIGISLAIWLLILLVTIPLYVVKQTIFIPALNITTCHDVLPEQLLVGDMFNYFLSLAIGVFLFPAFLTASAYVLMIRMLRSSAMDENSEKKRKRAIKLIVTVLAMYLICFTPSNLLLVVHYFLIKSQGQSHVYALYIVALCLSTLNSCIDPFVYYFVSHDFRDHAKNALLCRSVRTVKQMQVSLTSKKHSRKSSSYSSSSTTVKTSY
Description: cell lysates applied on GST immobilized PH-domain columns (PAR2).

Experiment [8] has as its target T4, HA-tagged mutant hPar1-7A (human, UniProt P25116 42-425).
T4 construct: whole, on cells; Tested in lysates of transfected cells; also called HA-hPar1-7A; PAR1A7; not shown: HA tag
T4 sequence (looked up): B1 chain with C337A, Q338A, R339A, Y340A, V341A, Y342A, S343A
Description: cell lysates applied on GST-PH-Vav3. The method, then:
GST fusion protein columns. Fusion proteins were purified from transformed Escherichia coli bacteria that had been stimulated with isopropyl-β-D-thio-galactopyranoside (IPTG) at a concentration of […]. Bacteria were lysed according to published procedures, and then immobilized on glutathione Sepharose beads (Pharmacia). Briefly, MDA-MB-435 cell lysates were applied to GST-PAR1C-tail or GST control columns. After 2 h binding periods to the designated protein/s cell lysates to the columns, a washing step was performed. The washes (×3) were carried out using a “wash buffer” including: 100 mM NaCL, 20 mM EDTA, 10 mM Tris, pH 8.0 and 1% Triton ×100. This step was performed in order to wash out all non-specific proteins, leaving the GST-PAR₁-C-tail column firmly bound to targeted cell lysate proteins. Next, elution of bound proteins was performed via the addition of gel “sample buffer” and appropriate boiling. The samples were run electrophoretically on SDS-PAGE gels, followed by immunoblotting with the indicated antibodies and ECL detection. GST-PH-Etk/Bmx. […]
Namely, without wishing to be bound by theory the PAR₁-C-tail appears to be an anchor region for association with PH-domain containing proteins. For this purpose, the association between Akt (which is ubiquitously expressed in the cells) and PAR₁ was analyzed, following activation. […]

Chain of c-Yes (P07947 2-543 limits assumed): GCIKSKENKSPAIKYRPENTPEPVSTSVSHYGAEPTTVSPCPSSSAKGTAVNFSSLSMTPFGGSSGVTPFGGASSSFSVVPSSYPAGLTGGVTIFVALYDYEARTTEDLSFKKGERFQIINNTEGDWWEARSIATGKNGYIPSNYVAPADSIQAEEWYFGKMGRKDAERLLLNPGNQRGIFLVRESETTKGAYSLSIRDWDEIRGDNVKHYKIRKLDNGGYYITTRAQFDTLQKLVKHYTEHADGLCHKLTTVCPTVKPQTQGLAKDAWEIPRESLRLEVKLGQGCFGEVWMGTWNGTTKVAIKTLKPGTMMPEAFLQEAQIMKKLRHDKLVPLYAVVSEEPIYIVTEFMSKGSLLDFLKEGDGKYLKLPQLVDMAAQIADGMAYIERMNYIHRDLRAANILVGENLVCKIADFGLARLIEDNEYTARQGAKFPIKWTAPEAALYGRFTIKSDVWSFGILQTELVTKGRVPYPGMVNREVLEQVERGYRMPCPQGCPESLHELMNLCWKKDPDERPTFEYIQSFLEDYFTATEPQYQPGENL

Take B1: the binding result in experiment [1] and in experiment [2] was “binds” in each case. In the case of B2, in experiment [3], the binding result was “binds”. For B3, in experiment [4], the binding result was “binds”. Regarding B4, the binding result in experiment [5] was “binds”. As to B5, the results for the binding result in experiment [6], in experiment [7] and in experiment [8] were “binds”, “binds” and “no binding”, respectively.
